{"source": "the supplement of paper PMC11316812", "key": {"MCF7": {"test_system": "MCF7", "assay": "percentage of EdU-negative (G0-arrested) nuclei per well, 72 h; higher = more G0 arrest", "conditions": "reference: sequence is the full UniProt precursor, the tested protein was the secreted form or ectodomain"}, "hTERT-HMEC": {"test_system": "hTERT-HMEC", "assay": "percentage of EdU-negative (G0-arrested) nuclei per well, 72 h; higher = more G0 arrest", "conditions": "reference: sequence is the full UniProt precursor, the tested protein was the secreted form or ectodomain"}, "[1]": {"conditions": "protein concentration 0.00825 µM"}, "[2]": {"conditions": "protein concentration 0.0825 µM"}, "[3]": {"conditions": "protein concentration 0.0115 µM"}, "[4]": {"conditions": "protein concentration 0.0225 µM"}, "[5]": {"conditions": "protein concentration 0.00857143 µM"}, "[6]": {"conditions": "protein concentration 0.0857143 µM"}}, "note": "± gives the standard deviation of the averaged measurements.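 Further: secreted proteins added to cultured cells, EdU pulse at the end, nuclei found by Hoechst imaging, EdU status from nuclear versus surrounding ring intensity ratio, PBS as neutral control.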"}
{"sequence": "MLVGQGAGPLGPAVVTAAVVLLLSGVGPAHGSEDIVVGCGGFVKSDVEINYSLIEIKLYTKHGTLKYQTDCAPNNGYFMIPLYDKGDFILKIEPPLGWSFEPTTVELHVDGVSDICTKGGDINFVFTGFSVNGKVLSKGQPLGPAGVQVSLRNTGTEAKIQSTVTQPGGKFAFFKVLPGDYEILATHPTWALKEASTTVRVTNSNANAASPLIVAGYNVSGSVRSDGEPMKGVKFLLFSSLVTKEDVLGCNVSPVPGFQPQDESLVYLCYTVSREDGSFSFYSLPSGGYTVIPFYRGERITFDVAPSRLDFTVEHDSLKIEPVFHVMGFSVTGRVLNGPEGDGVPEAVVTLNNQIKVKTKADGSFRLENITTGTYTIHAQKEHLYFETVTIKIAPNTPQLADIIATGFSVCGQISIIRFPDTVKQMNKYKVVLSSQDKDKSLVTVETDAHGSFCFKAKPGTYKVQVMVPEAETRAGLTLKPQTFPLTVTNRPMMDVAFVQFLASVSGKVSCLDTCGDLLVTLQSLSRQGEKRSLQLSGKVNAMTFTFDNVLPGKYKISIMHEDWCWKNKSLEVEVLEDDMSAVEFRQTGYMLRCSLSHAITLEFYQDGNGRENVGIYNLSKGVNRFCLSKPGVYKVTPRSCHRFEQAFYTYDTSSPSILTLTAIRHHVLGTITTDKMMDVTVTIKSSIDSEPALVLGPLKSVQELRREQQLAEIEARRQEREKNGNEEGEERMTKPPVQEMVDELQGPFSYDFSYWARSGEKITVTPSSKELLFYPPSMEAVVSGESCPGKLIEIHGKAGLFLEGQIHPELEGVEIVISEKGASSPLITVFTDDKGAYSVGPLHSDLEYTVTSQKEGYVLTAVEGTIGDFKAYALAGVSFEIKAEDDQPLPGVLLSLSGGLFRSNLLTQDNGILTFSNLSPGQYYFKPMMKEFRFEPSSQMIEVQEGQNLKITITGYRTAYSCYGTVSSLNGEPEQGVAMEAVGQNDCSIYGEDTVTDEEGKFRLRGLLPGCVYHVQLKAEGNDHIERALPHHRVIEVGNNDIDDVNIIVFRQINQFDLSGNVITSSEYLPTLWVKLYKSENLDNPIQTVSLGQSLFFHFPPLLRDGENYVVLLDSTLPRSQYDYILPQVSFTAVGYHKHITLIFNPTRKLPEQDIAQGSYIALPLTLLVLLAGYNHDKLIPLLLQLTSRLQGVRALGQAASDNSGPEDAKRQAKKQKTRRT", "values": [{"measurement": "percentage of EdU-negative", "setting": "MCF7; [1]", "value": "22.7 ± 1.3", "unit": "%"}, {"measurement": "percentage of EdU-negative", "setting": "MCF7; [2]", "value": "26.29 ± 0.074", "unit": "%"}, {"measurement": "percentage of EdU-negative", "setting": "hTERT-HMEC; [1]", "value": "5.23 ± 0.14", "unit": "%"}, {"measurement": "percentage of EdU-negative", "setting": "hTERT-HMEC; [2]", "value": "7.14 ± 1.1", "unit": "%"}]}
{"sequence": "MARFWVCVAGAGFFLAFLVLHSRFCGSPVLRNFTFAVSWRTEKILYRLDVGWPKHPEYFTGTTFCVAVDSLNGLVYIGQRGDNIPKILVFTEDGYFLRAWNYTVDTPHGIFAASTLYEQSVWITDVGSGFFGHTVKKYSSFGDLVQVLGTPGKKGTSLNPLQFDNPAELYVEDTGDIYIVDGDGGLNNRLIKLSQDFMILWLHGENGTGPAKFNIPHSVTLDSAGRVWVADRGNKRIQVFDKDTGEWLGAWNNCFTEEGPSSVRFTPDGKYLIVAQLNLSRLSVVAAPPVGSIGECSVISTIQLADQVLPHLLEVDRKTGAVYVAEIGAKQVQKYVPLNSYVPSFGS [Q5JS37]", "values": [{"measurement": "percentage of EdU-negative", "setting": "MCF7; [3]", "value": "26.8 ± 0.58", "unit": "%"}, {"measurement": "percentage of EdU-negative", "setting": "MCF7; protein concentration 0.115 µM", "value": "29.3 ± 1.4", "unit": "%"}, {"measurement": "percentage of EdU-negative", "setting": "hTERT-HMEC; [3]", "value": "4.82 ± 0.15", "unit": "%"}, {"measurement": "percentage of EdU-negative", "setting": "hTERT-HMEC; protein concentration 0.115 µM", "value": "16.1 ± 0.13", "unit": "%"}]}
{"sequence": "MFCPLKLILLPVLLDYSLGLNDLNVSPPELTVHVGDSALMGCVFQSTEDKCIFKIDWTLSPGEHAKDEYVLYYYSNLSVPIGRFQNRVHLMGDILCNDGSLLLQDVQEADQGTYICEIRLKGESQVFKKAVVLHVLPEEPKELMVHVGGLIQMGCVFQSTEVKHVTKVEWIFSGRRAKEEIVFRYYHKLRMSVEYSQSWGHFQNRVNLVGDIFRNDGSIMLQGVRESDGGNYTCSIHLGNLVFKKTIVLHVSPEEPRTLVTPAALRPLVLGGNQLVIIVGIVCATILLLPVLILIVKKTCGNKSSVNSTVLVKNTKKTNPEIKEKPCHFERCEGEKHIYSPIIVREVIEEEEPSEKSEATYMTMHPVWPSLRSDRNNSLEKKSGGGMPKTQQAF [Q86YT9]", "values": [{"measurement": "percentage of EdU-negative", "setting": "MCF7; [4]", "value": "23.21 ± 0.041", "unit": "%"}, {"measurement": "percentage of EdU-negative", "setting": "MCF7; protein concentration 0.225 µM", "value": "24.8 ± 2.1", "unit": "%"}, {"measurement": "percentage of EdU-negative", "setting": "hTERT-HMEC; [4]", "value": "4.64 ± 0.38", "unit": "%"}, {"measurement": "percentage of EdU-negative", "setting": "hTERT-HMEC; protein concentration 0.225 µM", "value": "5.35 ± 1.2", "unit": "%"}]}
{"sequence": "MSVPLLKIGVVLSTMAMITNWMSQTLPSLVGLNTTKLSAAGGGTLDRSTGVLPTNPEESWQVYSSAQDSEGRCICTVVAPQQTMCSRDARTKQLRQLLEKVQNMSQSIEVLDRRTQRDLQYVEKMENQMKGLESKFKQVEESHKQHLARQFKAIKAKMDELRPLIPVLEEYKADAKLVLQFKEEVQNLTSVLNELQEEIGAYDYDELQSRVSNLEERLRACMQKLACGKLTGISDPVTVKTSGSRFGSWMTDPLAPEGDNRVWYMDGYHNNRFVREYKSMVDFMNTDNFTSHRLPHPWSGTGQVVYNGSIYFNKFQSHIIIRFDLKTETILKTRSLDYAGYNNMYHYAWGGHSDIDLMVDESGLWAVYATNQNAGNIVVSRLDPVSLQTLQTWNTSYPKRSAGEAFIICGTLYVTNGYSGGTKVHYAYQTNASTYEYIDIPFQNKYSHISMLDYNPKDRALYAWNNGHQILYNVTLFHVIRSDEL", "values": [{"measurement": "percentage of EdU-negative", "setting": "MCF7; [5]", "value": "25.5 ± 3.5", "unit": "%"}, {"measurement": "percentage of EdU-negative", "setting": "MCF7; [6]", "value": "29.3 ± 2.1", "unit": "%"}, {"measurement": "percentage of EdU-negative", "setting": "hTERT-HMEC; [5]", "value": "4.93 ± 0.14", "unit": "%"}, {"measurement": "percentage of EdU-negative", "setting": "hTERT-HMEC; [6]", "value": "9.49 ± 1.4", "unit": "%"}]}
{"sequence": "MAMRLILFFGALFGHIYCLETFVGDQVLEIVPSNEEQIKNLLQLEAQEHLQLDFWKSPTTPGETAHVRVPFVNVQAVKVFLESQGIAYSIMIEDVQVLLDKENEEMLFNRRRERSGNFNFGAYHTLEEISQEMDNLVAEHPGLVSKVNIGSSFENRPMNVLKFSTGGDKPAIWLDAGIHAREWVTQATALWTANKIVSDYGKDPSITSILDALDIFLLPVTNPDGYVFSQTKNRMWRKTRSKVSGSLCVGVDPNRNWDAGFGGPGASSNPCSDSYHGPSANSEVEVKSIVDFIKSHGKVKAFITLHSYSQLLMFPYGYKCTKLDDFDELSEVAQKAAQSLRSLHGTKYKVGPICSVIYQASGGSIDWSYDYGIKYSFAFELRDTGRYGFLLPARQILPTAEETWLGLKAIMEHVRDHPY", "values": [{"measurement": "percentage of EdU-negative", "setting": "MCF7; [4]", "value": "25.6 ± 2.3", "unit": "%"}, {"measurement": "percentage of EdU-negative", "setting": "MCF7; protein concentration 0.225 µM", "value": "24.9 ± 0.71", "unit": "%"}, {"measurement": "percentage of EdU-negative", "setting": "hTERT-HMEC; [4]", "value": "6 ± 1", "unit": "%"}, {"measurement": "percentage of EdU-negative", "setting": "hTERT-HMEC; protein concentration 0.225 µM", "value": "5.16 ± 0.28", "unit": "%"}]}
{"sequence": "MKLLFPIFASLMLQYQVNTEFIGLRRCLMGLGRCRDHCNVDEKEIQKCKMKKCCVGPKVVKLIKNYLQYGTPNVLNEDVQEMLKPAKNSSAVIQRKHILSVLPQIKSTSFFANTNFVIIPNATPMNSATISTMTPGQITYTATSTKSNTKESRDSATASPPPAPPPPNILPTPSLELEEAEEQ [Q9H1M3]", "values": [{"measurement": "percentage of EdU-negative", "setting": "MCF7; [4]", "value": "23.2 ± 1.2", "unit": "%"}, {"measurement": "percentage of EdU-negative", "setting": "MCF7; protein concentration 0.225 µM", "value": "25.3 ± 1.1", "unit": "%"}, {"measurement": "percentage of EdU-negative", "setting": "hTERT-HMEC; [4]", "value": "4.86 ± 0.34", "unit": "%"}, {"measurement": "percentage of EdU-negative", "setting": "hTERT-HMEC; protein concentration 0.225 µM", "value": "4.66 ± 0.73", "unit": "%"}]}
